# Experimental data published in patent US20160289299A1.
# What was measured:
# [1] = target: recombinant human wild-type FVa (UniProt P12259)
# [2] = system: ^superFVa (recombinant super factor five, thrombin-activated)
# [3] = target: recombinant human wild-type FVa (UniProt P12259); experiment: cell-based or functional assay
# [4] = target: ^superFVa (recombinant super factor five, thrombin-activated) (human) (UniProt P12259); experiment: cell-based or functional assay
# Sequence of ^superFVa (recombinant super factor five, thrombin-activated) (chain, as listed by the source): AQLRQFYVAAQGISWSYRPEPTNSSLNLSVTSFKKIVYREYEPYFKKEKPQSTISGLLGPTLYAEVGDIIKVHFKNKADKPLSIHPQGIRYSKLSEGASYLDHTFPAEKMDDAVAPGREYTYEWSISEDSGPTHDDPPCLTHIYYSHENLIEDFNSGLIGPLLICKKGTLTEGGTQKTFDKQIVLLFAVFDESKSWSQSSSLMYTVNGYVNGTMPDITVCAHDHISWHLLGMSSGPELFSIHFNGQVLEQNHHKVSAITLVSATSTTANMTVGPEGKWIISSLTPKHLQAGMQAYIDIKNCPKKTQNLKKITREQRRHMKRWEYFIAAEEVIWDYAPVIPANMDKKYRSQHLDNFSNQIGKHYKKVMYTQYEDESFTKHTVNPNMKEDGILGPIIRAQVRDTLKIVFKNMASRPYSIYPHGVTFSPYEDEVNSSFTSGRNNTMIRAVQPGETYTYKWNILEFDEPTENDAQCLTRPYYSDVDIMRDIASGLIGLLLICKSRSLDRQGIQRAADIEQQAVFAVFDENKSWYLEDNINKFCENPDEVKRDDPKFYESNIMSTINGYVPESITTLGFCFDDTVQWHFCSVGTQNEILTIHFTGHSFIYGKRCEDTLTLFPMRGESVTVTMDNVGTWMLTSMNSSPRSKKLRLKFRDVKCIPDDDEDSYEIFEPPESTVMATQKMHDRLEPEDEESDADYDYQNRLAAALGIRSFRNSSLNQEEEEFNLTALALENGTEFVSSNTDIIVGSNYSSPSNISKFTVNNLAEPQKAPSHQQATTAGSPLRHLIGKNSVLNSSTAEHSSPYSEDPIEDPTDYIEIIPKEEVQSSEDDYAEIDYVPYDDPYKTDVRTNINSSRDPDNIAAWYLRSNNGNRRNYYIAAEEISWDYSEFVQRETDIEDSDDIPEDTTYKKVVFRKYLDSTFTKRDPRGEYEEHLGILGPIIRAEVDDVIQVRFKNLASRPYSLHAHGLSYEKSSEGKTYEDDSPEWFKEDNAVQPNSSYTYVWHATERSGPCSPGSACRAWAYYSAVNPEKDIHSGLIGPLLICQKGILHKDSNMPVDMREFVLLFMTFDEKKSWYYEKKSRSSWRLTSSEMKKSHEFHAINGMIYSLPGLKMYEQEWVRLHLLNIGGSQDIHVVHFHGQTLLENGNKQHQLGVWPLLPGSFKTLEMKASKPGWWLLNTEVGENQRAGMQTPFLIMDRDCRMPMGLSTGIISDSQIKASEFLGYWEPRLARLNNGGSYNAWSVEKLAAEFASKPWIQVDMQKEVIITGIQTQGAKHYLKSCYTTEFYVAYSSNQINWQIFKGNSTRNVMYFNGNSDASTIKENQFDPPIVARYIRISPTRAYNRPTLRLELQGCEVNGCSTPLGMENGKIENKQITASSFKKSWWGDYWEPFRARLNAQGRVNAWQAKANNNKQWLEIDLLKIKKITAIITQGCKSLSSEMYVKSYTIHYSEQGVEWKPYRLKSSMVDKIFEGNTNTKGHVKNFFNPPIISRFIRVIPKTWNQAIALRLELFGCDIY
ex vivo whole blood aPTT after intravenous APC (0.5 mg/kg) in Balb/c mice [3],ex vivo whole blood aPTT after intravenous APC (0.5 mg/kg) in Balb/c mice [4],Substance,ETP restored in human or murine plasma in the presence of APC [1],aPTT in human plasma with APC at 0.05 U/mL FVa variant [1],aPTT in murine plasma with human APC at 5 U/mL FVa variant [1],ETP restored in human or murine plasma in the presence of APC [2],aPTT in human plasma with APC at 0.05 U/mL FVa variant [2],aPTT in murine plasma with human APC at 5 U/mL FVa variant [2],"aPTT normalisation in human plasma with 10 nM APC, concentration relative to FVa [2]"
,,recombinant human Activated Protein C (Xigris),at concentrations where FVa did not show effects,FVa shortened the aPTT only from ˜100 to 80 seconds,FVa shortened the aPTT only from ˜100 to 70 seconds,Only ^superFVa restored ETP to ˜90-100% in human or murine plasma at concentrations where FVa did not show effects,"At 0.05 U/mL FVa variants, ^superFVa fully corrected the aPTT",At 5 U/mL FVa variants ^superFVa fully corrected the aPTT,in human plasma ^superFVa normalized the aPTT at 100-fold lower concentrations compared to FVa
50 s,30 s,recombinant murine Activated Protein C (from UniProt P33587 42-460) (enzyme),,,,,,,
